The values below come from publication PMC2762480.

The target of experiment [1] is s-dEGFRΔV (Drosophila EGF receptor extracellular region, domains I to IV) (Drosophila melanogaster). The experiment in a line: AUC.
The target of experiment [2] is s-dEGFRΔV/Spitz complex (Drosophila melanogaster) (UniProt Q01083). The experiment in a line: AUC.

As to “s-dEGFRΔV (Drosophila EGF receptor extracellular region, domains I to IV) (domain or fragment)”, the Kd in experiment [1] amounted to 40 µM. In experiment [2], “s-dEGFRΔV/Spitz complex (from UniProt Q01083 29-143)” gave a stoichiometry N of 2.

As usually defined, the Kd is the constant that tells how readily two partners part at equilibrium. Low values mean a tighter complex, high ones a looser complex. Broadly, the stoichiometry N is the number of molecules, sites or subunits per partner or assembly.
